First the molecules themselves.
B3: human FGFR3b expressed with a C-terminal murine Fc tag (hFGFR3b.mFc) (Fc fusion)
chain: ESLGTEQRVVGRAAEVPGPEPGQQEQLVFGSGDAVELSCPPPGGGPMGPTVWVKDGTGLVPSERVLVGPQRLQVLNASHEDSGAYSCRQRLTQRVLCHFSVRVTDAPSSGDDEDGEDEAEDTGVDTGAPYWTRPERMDKKLLAVPAANTVRFRCPAAGNPTPSISWLKNGREFRGEHRIGGIKLRHQQWSLVMESVVPSDRGNYTCVVENKFGSIRQTYTLDVLERSPHRPILQAGLPANQTAVLGSDVEFHCKVYSDAQPHIQWLKHVEVNGSKVGPDGTPYVTVLKSWISESVEADVRLRLANVSERDGGEYLCRATNFIGVAEKAFWLSVHGPRAAEEELVEADEAGSVYAGEPRGPTIKPCPPCKCPAPNLLGGPSVFIFPPKIKDVLMISLSPIVTCVVVDVSEDDPDVQISWFVNNVEVHTAQTQTHREDYNSTLRVVSALPIQHQDWMSGKEFKCKVNNKDLPAPIERTISKPKGSVRAPQVYVLPPPEEEMTKKQVTLTCMVTDFMPEDIYVEWTNNGKTELNYKNTEPVLDSDGSYFMYSKLRVEKKNWVERNSYSCSVVHEGLHNHHTTKSFSRTPGK
notes: called dimeric; also called REGN3153; dimeric human FGFR3b

The target in test [1] is T1, human FGFR3b expressed with a C-terminal myc-myc-hexahistidine tag (hFGFR3b.mmH) (human).
T1 construct: monomeric; also called REGN3152; monomeric human FGFR3b
T1 chain: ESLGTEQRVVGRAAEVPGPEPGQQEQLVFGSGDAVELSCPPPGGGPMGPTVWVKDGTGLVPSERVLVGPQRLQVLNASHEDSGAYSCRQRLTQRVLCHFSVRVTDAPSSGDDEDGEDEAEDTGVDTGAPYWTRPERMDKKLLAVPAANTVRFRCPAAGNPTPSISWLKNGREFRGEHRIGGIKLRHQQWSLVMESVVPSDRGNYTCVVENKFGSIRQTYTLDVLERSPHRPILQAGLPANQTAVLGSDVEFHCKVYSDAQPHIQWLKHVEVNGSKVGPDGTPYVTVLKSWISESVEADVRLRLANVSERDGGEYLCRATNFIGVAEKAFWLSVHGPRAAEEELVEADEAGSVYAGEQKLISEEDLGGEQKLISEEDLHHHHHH
The test is described as follows: SPR (Biacore), captured mAb, 25 C. As for the experimental part:
(§1) The CM5 Biacore sensor surface was derivatized by amine coupling with a monoclonal mouse anti-human Fc monoclonal antibody (REGN2567). All Biacore binding studies were performed in a buffer composed of 0.01M HEPES pH 7.4, 0.15 M NaCl, 3 mM EDTA, 0.05% v/v Surfactant P20 (HBS-EP running buffer). […] Antibody-reagent association was monitored for 5 minutes while dissociation in HBS-EP running buffer was monitored for 10 minutes. At the end of each cycle, the anti-FGFR3 antibody capture surface was regenerated using a 10 sec injection of 20 mM phosphoric acid. All binding kinetics experiments were performed at 25° C.
(§2) The specific SPR-Biacore sensorgrams were obtained by a double referencing procedure. The double referencing was performed by first subtracting the signal of each injection over a reference surface (anti-hFc) from the signal over the experimental surface (anti-hFc-captured anti-FGFR3 antibodies) thereby removing contributions from refractive index changes. In addition, running buffer injections were performed to allow subtraction of the signal changes resulting from the dissociation of captured antibodies from the coupled anti-hFc surface. Kinetic association (kₐ) and dissociation (kd) rate constants were determined by fitting the real-time sensorgrams to a 1:1 binding model using Scrubber v2.0c curve fitting software.

Test [2] addresses T2, human FGFR3c expressed with a C-terminal myc-myc-hexahistidine tag (hFGFR3c.mmH) (human, UniProt P22607 23-375).
T2 construct: monomeric; also called REGN3155; monomeric human FGFR3c
The test is described as follows: SPR (Biacore), captured mAb, 25 C. The procedure:
as §1, §2

The target in test [3] is T3, cynomolgus FGFR3b expressed with a C-terminal myc-myc-hexahistidine tag (mfFGFR3b.mmH) (cynomolgus).
T3 construct: The name states R357G; also called REGN3521; mf FGFR3b ecto (R357G) (E23-G377;R357G).mmH
T3 chain: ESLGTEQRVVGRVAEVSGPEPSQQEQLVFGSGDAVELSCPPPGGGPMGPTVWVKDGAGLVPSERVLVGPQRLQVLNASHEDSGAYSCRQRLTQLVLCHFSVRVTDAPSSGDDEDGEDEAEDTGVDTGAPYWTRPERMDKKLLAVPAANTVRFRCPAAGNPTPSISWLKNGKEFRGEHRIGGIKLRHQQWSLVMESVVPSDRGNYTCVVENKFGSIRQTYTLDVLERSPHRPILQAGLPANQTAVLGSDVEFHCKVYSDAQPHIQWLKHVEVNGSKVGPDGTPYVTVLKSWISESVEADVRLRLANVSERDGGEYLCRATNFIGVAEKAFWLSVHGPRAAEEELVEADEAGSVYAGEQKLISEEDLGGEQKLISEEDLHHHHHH
The test is described as follows: SPR (Biacore), captured mAb, 25 C. The procedure:
as §1, §2

The target in test [4] is T4, murine FGFR3b expressed with a C-terminal myc-myc-hexahistidine tag (mFGFR3b.mmH) (mouse).
T4 construct: monomeric; also called REGN3215; monomeric murine FGFR3b
T4 chain: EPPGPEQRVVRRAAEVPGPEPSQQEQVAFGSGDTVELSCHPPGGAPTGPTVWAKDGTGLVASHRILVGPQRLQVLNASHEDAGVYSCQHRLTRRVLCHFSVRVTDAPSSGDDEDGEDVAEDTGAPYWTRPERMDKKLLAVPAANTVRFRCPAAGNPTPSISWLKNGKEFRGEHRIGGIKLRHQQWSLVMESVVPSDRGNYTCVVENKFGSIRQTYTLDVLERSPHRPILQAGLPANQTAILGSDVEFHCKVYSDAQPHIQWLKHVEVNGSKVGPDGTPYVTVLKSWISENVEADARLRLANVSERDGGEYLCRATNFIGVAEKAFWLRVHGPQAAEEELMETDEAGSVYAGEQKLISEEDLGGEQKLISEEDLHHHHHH
The test is described as follows: SPR (Biacore), captured mAb, 25 C. As for the experimental part:
as §1, §2

Test [5] addresses T1, human FGFR3b expressed with a …. The test is described as follows: SPR (Biacore), recombinant human FGFR3 protein.
Test [6] concerns the target B3. The test is described as follows: SPR (Biacore), captured mAb, 25 C. As for the experimental part: as §1, §2
The target in test [7] is T5, human fibroblast growth factor acidic (hFGF acidic) (human, UniProt P05230 2-155, limits assumed).
T5 construct: Bought; coated on the plate with heparin; also called FGF1 acidic
T5 sequence (P05230 2-155 limits assumed, form in doubt): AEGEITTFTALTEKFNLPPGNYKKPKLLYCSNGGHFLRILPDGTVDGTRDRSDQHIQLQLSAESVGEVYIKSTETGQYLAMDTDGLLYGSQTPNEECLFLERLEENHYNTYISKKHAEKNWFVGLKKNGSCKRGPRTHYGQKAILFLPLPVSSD
The test is described as follows: ELISA, receptor-Fc on plate-coated hFGF acidic with heparin; fixed concentration said to be chosen near the EC50 of this binding.

For test [8], the target named is T6, human fibroblast growth factor basic (hFGF basic) (human, UniProt P09038 144-288).
T6 construct: Bought; also called Biolegend 571508
T6 sequence (P09038 144-288, form in doubt): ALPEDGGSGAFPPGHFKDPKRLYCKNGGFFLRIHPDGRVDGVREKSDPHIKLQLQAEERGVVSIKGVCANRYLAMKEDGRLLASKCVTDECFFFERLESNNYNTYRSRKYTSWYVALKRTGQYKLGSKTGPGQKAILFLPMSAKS
The test is described as follows: ELISA, receptor-Fc on plate-coated hFGF basic with heparin; fixed concentration said to be chosen near the EC50 of this binding.

B1: H4H30105P2 (antibody, human IgG4 S228P, kappa, V domains shown)
VH: EVQLVQSGAEVKKPGESLKISCKGSGYSFTSYWIAWVRQMPGKGLEWMGIIYPGDSDTRYSPSFQGQVTMSADKSIRIAYLQWSSLKASDTAMYYCARLDYSGSWFDYWGQGTLVTVSS
VL: not shown
With B1, the t½ in test [1] was found to be 2.3 min; in test [2] it was 1.8 min; in test [3] it was 1.4 min; in test [4] it was 9.5 min.

B2: H4H30093P2 (antibody, human IgG4 S228P, kappa, V domains shown)
VH: QVQLVESGGGLVKPGGSLRLSCAASGFTFNDYPMSWIRQAPGKGLEWVSYITSSSGSTIYYADSVKGRFTISRDNAKNSLYLQMNSLRAEDTAVYYCAREVVVATIGGYYGMDVWGQGTTVTVSS
VL: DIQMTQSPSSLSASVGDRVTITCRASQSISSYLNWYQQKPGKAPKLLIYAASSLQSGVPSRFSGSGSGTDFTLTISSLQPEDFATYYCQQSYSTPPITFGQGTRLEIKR
As to B2, the dissociation constant Kd in test [5] amounted to 9.06 nM. Moreover, the t½ turned out to be 5.5 min in test [1], 3.5 min in test [2], 1.2 min in test [4] and 745 min in test [6].
Turning to B3, the EC50 in test [7] is ~4 nM.

B4: hFGFR3c-hFc (Fc fusion, human, UniProt P22607 23-375, looked up)
chain: ESLGTEQRVVGRAAEVPGPEPGQQEQLVFGSGDAVELSCPPPGGGPMGPTVWVKDGTGLVPSERVLVGPQRLQVLNASHEDSGAYSCRQRLTQRVLCHFSVRVTDAPSSGDDEDGEDEAEDTGVDTGAPYWTRPERMDKKLLAVPAANTVRFRCPAAGNPTPSISWLKNGREFRGEHRIGGIKLRHQQWSLVMESVVPSDRGNYTCVVENKFGSIRQTYTLDVLERSPHRPILQAGLPANQTAVLGSDVEFHCKVYSDAQPHIQWLKHVEVNGSKVGPDGTPYVTVLKTAGANTTDKELEVLSLHNVTFEDAGEYTCLAGNSIGFSHHSAWLVVLPAEEELVEADEAGSVYAG
notes: range 23-375; Bought (R&D Systems); also called human FGFR3c extracellular domain with human IgG1 Fc; R&D Systems 766-FR-050; not shown: Fc portion of human IgG1 at the C-terminus, amino acids Pro100-Lys330
B4: the EC50 was ~0.4 nM in test [7] and ~7 nM in test [8].
